Experimental data reported in article PMC5727500, “Paper-based MoS2 nanosheet-mediated FRET aptasensor for rapid malaria diagnosis”.

Molecular target: Plasmodium lactate dehydrogenase (pLDH) (Plasmodium falciparum, UniProt Q27743 1-316)
Assay: FRET fluorescence recovery from MoS2 nanosheets on printer paper; 1 uM pLDH; 100 nM aptamer, 25 ug/mL MoS2 dried on printer paper; no recovery on lens, coffee filter, Whatman or Advantec paper; Aptamer buffer 20 mM Tris-HCl pH 8, 50 mM NaCl, 5 mM KCl, 5 mM MgCl2; pLDH in water, other proteins in 1x PBS; readings over 30 min; temperature not stated
Conditions: protein: recombinant; chain copies: 4; label: 3' FAM

Chain of Plasmodium lactate dehydrogenase (pLDH) (Q27743 whole entry): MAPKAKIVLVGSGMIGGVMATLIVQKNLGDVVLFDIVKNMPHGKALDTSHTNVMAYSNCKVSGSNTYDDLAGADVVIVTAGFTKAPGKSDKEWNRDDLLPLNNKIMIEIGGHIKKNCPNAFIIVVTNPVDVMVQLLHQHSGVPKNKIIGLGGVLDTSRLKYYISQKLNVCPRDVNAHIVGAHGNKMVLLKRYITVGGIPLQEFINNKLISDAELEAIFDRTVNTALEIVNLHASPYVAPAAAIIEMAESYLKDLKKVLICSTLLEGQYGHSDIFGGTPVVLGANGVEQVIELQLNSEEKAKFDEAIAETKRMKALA

B1: pLDH aptamer (ssDNA)
DNA: GTTCGATTGGATTGTGCCGGAAGTGCTGGCTCGAAC
binding result: binds
